“And” between values parts separate entries of the source, which are not always exact repeats. Identical values can stand only once.
Tests used:
Experiment in all cases: SEC
[1] = molecular target: DEBS3M5 KS0-AT A539D (Saccharopolyspora erythraea)
[2] = molecular target: DEBS3M5 KS0-AT A539E (Saccharopolyspora erythraea)
[3] = molecular target: DEBS3M5 KS0-AT A539F (Saccharopolyspora erythraea)
[4] = molecular target: DEBS3M5 KS0-AT A539S (Saccharopolyspora erythraea)
[5] = molecular target: DEBS3M5 KS0-AT R850A (Saccharopolyspora erythraea)
[6] = molecular target: DEBS3M5 KS0-AT R850E (Saccharopolyspora erythraea)
[7] = molecular target: DEBS3M5 KS0-AT R850F (Saccharopolyspora erythraea)
[8] = molecular target: DEBS3M5 KS0-AT R850K (Saccharopolyspora erythraea)
[9] = molecular target: DEBS3M5 KS0-AT R850S (Saccharopolyspora erythraea)
[10] = molecular target: DEBS3M5 KS0-AT didomain, wild type (6-deoxyerythronolide B synthase module 5, KS knockout) (Saccharopolyspora erythraea)
[11] = molecular target: PikAIIIM5 KS0-AT didomain (pikromycin synthase module 5) (Streptomyces venezuelae)
[12] = molecular target: Pks7 KS0-AT didomain (Saccharopolyspora erythraea)
[13] = molecular target: RAPS3M14 KS0-AT didomain (rapamycin synthase module 14) (Streptomyces hygroscopicus)

DEBS3M5 KS0-AT A539D (domain or fragment)
stoichiometry N [1]: 4 and 2

DEBS3M5 KS0-AT A539E (domain or fragment)
stoichiometry N [2]: 4 and 2

DEBS3M5 KS0-AT A539F (domain or fragment)
stoichiometry N [3]: 4 and 2

DEBS3M5 KS0-AT A539S (domain or fragment)
stoichiometry N [4]: 4 and 2

DEBS3M5 KS0-AT R850A (domain or fragment)
stoichiometry N [5]: 4 and 2

DEBS3M5 KS0-AT R850E (domain or fragment)
stoichiometry N [6]: 4 and 2

DEBS3M5 KS0-AT R850F (domain or fragment)
stoichiometry N [7]: 4 and 2

DEBS3M5 KS0-AT R850K (domain or fragment)
stoichiometry N [8]: 4 and 2

DEBS3M5 KS0-AT R850S (domain or fragment)
stoichiometry N [9]: 4 and 2

DEBS3M5 KS0-AT didomain, wild type (6-deoxyerythronolide B synthase module 5, KS knockout) (domain or fragment)
stoichiometry N [10]: 4 and 2

PikAIIIM5 KS0-AT didomain (pikromycin synthase module 5) (domain or fragment)
stoichiometry N [11]: 2

Pks7 KS0-AT didomain (domain or fragment)
stoichiometry N [12]: 2

RAPS3M14 KS0-AT didomain (rapamycin synthase module 14) (domain or fragment)
stoichiometry N [13]: 4

From publication doi:10.1101/2020.12.29.424742
